Source: patent publication US20220265769A1 (GEISINGER HEALTH, published 2022)

Assays:
TBX3 = target: T1, TBX3 (human, UniProt O15119 1-743, limits assumed); assay: IP and immunoblot, primary human fibroblasts
T1 sequence (looked up): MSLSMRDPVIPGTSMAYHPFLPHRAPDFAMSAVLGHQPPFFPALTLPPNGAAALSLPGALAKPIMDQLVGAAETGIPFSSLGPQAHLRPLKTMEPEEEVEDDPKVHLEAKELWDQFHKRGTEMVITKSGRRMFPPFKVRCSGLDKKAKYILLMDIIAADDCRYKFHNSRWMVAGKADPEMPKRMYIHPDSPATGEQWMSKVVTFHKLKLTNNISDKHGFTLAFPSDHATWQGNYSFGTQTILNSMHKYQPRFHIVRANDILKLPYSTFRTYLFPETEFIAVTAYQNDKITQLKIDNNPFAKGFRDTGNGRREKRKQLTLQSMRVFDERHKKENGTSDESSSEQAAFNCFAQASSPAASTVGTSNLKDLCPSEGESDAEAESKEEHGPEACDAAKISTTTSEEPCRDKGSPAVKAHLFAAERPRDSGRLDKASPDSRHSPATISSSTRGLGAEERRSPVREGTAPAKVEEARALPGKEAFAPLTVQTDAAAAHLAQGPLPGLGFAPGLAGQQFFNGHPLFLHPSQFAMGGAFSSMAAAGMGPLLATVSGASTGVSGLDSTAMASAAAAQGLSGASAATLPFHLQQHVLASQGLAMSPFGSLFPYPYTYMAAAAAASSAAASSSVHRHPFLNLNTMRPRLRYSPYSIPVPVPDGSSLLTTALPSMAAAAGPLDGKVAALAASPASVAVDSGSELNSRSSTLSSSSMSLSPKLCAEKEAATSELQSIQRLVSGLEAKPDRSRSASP

EZH2 = EZH2 (human, UniProt Q15910 1-746, limits assumed); assay: IP and immunoblot, T47D cells and primary human fibroblasts
estrogen receptor (ERα) = target: T2, estrogen receptor (ERα) (human, UniProt P03372 1-595); assay: IP and immunoblot, T47D, MDA-MB231 and PME cells (FIG. 14F)
T2 construct: also called ESR1
T2 sequence (looked up): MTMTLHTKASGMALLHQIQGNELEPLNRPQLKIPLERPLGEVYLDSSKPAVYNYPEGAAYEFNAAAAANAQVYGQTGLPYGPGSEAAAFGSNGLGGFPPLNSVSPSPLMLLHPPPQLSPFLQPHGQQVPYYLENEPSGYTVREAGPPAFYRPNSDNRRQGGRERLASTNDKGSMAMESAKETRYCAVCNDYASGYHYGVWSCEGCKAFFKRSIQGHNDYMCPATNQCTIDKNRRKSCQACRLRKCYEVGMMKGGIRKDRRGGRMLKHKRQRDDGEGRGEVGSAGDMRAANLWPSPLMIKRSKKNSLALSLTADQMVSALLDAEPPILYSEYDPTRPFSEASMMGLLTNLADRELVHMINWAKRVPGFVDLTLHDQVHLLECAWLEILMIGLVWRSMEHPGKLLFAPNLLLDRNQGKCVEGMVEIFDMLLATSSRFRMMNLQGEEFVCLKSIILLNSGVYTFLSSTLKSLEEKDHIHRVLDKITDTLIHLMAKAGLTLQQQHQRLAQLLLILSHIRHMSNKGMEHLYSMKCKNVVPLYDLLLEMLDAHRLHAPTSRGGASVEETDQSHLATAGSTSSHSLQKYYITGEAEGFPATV

HCF-1 = HCF-1 (human, UniProt P51610 2-2035, limits assumed); assay: as above
HCF-1, sequence (P51610 2-2035 limits assumed): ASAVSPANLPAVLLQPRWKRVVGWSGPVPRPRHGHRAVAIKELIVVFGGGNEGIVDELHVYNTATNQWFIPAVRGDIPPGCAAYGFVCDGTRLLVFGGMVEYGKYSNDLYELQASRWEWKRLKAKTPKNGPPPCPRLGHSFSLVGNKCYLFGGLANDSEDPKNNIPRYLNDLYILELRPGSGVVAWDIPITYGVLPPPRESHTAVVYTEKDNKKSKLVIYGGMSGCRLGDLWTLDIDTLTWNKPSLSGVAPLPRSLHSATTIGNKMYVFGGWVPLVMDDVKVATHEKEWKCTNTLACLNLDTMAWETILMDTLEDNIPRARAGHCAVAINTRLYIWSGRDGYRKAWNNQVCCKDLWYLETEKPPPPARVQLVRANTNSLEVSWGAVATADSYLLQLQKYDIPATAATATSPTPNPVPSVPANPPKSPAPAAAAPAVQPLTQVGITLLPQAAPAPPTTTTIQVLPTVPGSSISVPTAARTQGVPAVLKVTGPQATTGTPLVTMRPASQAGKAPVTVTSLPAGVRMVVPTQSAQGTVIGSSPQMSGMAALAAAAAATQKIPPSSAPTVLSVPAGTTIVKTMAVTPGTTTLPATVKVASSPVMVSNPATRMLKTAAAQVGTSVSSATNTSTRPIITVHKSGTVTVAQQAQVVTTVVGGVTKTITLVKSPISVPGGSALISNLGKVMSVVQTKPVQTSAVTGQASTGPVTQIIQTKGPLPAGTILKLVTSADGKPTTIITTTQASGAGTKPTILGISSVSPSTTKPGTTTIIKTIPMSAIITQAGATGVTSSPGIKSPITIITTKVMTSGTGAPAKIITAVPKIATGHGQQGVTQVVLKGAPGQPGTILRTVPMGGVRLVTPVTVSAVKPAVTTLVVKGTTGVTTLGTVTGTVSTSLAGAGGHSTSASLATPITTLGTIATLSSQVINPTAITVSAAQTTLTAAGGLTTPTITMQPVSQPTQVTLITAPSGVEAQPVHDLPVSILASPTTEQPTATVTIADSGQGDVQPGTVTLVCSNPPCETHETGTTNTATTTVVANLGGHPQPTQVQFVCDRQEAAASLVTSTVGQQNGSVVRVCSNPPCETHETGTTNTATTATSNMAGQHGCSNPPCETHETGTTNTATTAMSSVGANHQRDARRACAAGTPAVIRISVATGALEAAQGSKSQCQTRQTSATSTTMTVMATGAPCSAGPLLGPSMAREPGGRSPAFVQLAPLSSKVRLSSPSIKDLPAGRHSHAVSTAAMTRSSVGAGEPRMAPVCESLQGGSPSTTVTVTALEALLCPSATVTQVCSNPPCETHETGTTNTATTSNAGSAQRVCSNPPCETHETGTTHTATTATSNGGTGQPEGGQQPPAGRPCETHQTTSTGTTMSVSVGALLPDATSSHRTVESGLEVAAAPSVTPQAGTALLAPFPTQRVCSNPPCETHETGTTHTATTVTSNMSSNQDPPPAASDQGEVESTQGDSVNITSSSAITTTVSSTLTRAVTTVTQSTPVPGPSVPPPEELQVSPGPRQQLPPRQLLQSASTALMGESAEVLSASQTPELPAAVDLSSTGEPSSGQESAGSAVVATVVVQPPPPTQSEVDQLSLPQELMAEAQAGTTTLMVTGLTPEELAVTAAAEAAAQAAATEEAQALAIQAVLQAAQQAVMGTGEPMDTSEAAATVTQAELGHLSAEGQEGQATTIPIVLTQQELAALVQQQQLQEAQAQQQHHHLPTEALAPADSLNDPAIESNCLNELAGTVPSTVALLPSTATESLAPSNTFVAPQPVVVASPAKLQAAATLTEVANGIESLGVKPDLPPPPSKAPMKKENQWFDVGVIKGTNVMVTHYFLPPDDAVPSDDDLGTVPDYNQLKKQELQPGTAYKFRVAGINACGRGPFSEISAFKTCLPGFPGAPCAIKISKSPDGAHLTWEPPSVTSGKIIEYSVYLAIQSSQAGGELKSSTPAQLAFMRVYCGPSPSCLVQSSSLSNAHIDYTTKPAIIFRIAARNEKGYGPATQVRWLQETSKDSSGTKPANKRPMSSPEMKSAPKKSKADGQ

EZH2, sequence (Q15910 whole entry): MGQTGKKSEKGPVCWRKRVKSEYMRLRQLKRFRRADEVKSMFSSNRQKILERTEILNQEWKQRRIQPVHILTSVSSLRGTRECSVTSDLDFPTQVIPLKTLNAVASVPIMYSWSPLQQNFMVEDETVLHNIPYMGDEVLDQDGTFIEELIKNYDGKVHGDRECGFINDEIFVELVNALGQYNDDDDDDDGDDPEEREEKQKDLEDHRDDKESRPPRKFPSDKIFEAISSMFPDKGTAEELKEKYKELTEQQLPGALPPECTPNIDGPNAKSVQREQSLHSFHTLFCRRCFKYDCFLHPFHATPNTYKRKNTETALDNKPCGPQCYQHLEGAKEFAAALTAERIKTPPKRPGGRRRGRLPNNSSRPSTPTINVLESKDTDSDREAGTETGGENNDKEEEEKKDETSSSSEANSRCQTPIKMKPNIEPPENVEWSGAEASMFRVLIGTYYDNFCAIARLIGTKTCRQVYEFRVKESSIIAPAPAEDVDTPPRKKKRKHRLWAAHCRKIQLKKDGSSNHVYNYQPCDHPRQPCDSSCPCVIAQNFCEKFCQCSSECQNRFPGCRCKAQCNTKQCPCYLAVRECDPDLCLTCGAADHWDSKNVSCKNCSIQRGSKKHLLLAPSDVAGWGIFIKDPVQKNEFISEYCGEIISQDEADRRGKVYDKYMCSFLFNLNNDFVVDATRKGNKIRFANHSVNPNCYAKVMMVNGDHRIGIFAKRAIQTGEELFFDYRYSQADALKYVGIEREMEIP

B1: CAPERα (Coactivator of AP1 and Estrogen Receptor) (other, human, UniProt Q14498 2-530, looked up)
chain: ADDIDIEAMLEAPYKKDENKLSSANGHEERSKKRKKSKSRSRSHERKRSKSKERKRSRDRERKKSKSRERKRSRSKERRRSRSRSRDRRFRGRYRSPYSGPKFNSAIRGKIGLPHSIKLSRRRSRSKSPFRKDKSPVREPIDNLTPEERDARTVFCMQLAARIRPRDLEEFFSTVGKVRDVRMISDRNSRRSKGIAYVEFVDVSSVPLAIGLTGQRVLGVPIIVQASQAEKNRAAAMANNLQKGSAGPMRLYVGSLHFNITEDMLRGIFEPFGRIESIQLMMDSETGRSKGYGFITFSDSECAKKALEQLNGFELAGRPMKVGHVTERTDASSASSFLDSDELERTGIDLGTTGRLQLMARLAEGTGLQIPPAAQQALQMSGSLAFGAVAEFSFVIDLQTRLSQQTEASALAAAASVQPLATQCFQLSNMFNPQTEEEVGWDTEIKDDVIEECNKHGGVIHIYVDKNSAQGNVYVKCPSIAAAIAAVNALHGRWFAGKMITAAYVPLPTYHNLFPDSMTATQLLVPSRR
notes: Endogenous protein immunoprecipitated or blotted from Dignam lysates; also called RBM39
TBX3
  binding result: binds
EZH2
  binding result: binds
Estrogen receptor (ERα)
  binding result: no binding
HCF-1
  binding result: no binding
